The target in data set [1] is T1, His-tagged HMGB1 (UniProt P09429 P09429:1-215). As to the kind of experiment: SPR; 160 nM protein. As to conditions: tags: N-terminal His-tag. The method, then: (§1) First, a sensor chip (trade name: Sensor Chip SA, manufactured by GE Heathcare) specially made for a BIACORE was set on the aforementioned BLACORE (registered trademark) X. Biotinylate deoxythymidine (5 μmol/L) was injected into the flow cell 2 of the aforementioned sensor chip using a running buffer and subjected to binding until the signal intensity (RU: resonance unit) reached about 1000 RU. For the aforementioned biotinylated deoxythymidine, 20-base-long deoxythymidine in which the 5′ end was biotinylated was used. Then, 10 μg/mL of an RNA aptamer was injected at a flow rate of 20 μL/min for 1 min into the aforementioned flow cells 1 and 2 of the aforementioned chip using a running buffer and subjected to binding until the signal intensity reached about 1000 RU. Next, 675 nmol/L of the aforementioned His-tag-added HMGB1 was injected at a flow rate of 20 μL/min for 30 sec using the aforementioned running buffer, and under the same conditions the aforementioned running buffer was allowed to flow continuously for washing. Simultaneously with the injection of the aforementioned His-tag-added HMGB1 and washing with the aforementioned running buffer, signal intensity was measured. The aforementioned running buffer was composed of 20 mmol/L of HEPES, 500 mmol/L of NaCl, 0.1 mmol/L of MgCl₂, and 0.1% Triton X-100 (registered trademark), with the pH thereof being 7.2. As a blocking agent for suppressing nonspecific binding, tRNA was used in a concentration of 1 mg/mL. In a comparative example, signal intensity was measured in the same manner except that the aforementioned comparative example RNA was used in place of the aforementioned example RNA aptamers.
An analysis of ability to bind to His-tag added HMGB1 was carried out in the same manner as in (2) above of the aforementioned Example 1 except that the aforementioned RNA aptamers were used, and the concentration of the aforementioned His-tag-added HMGB1 was 160 nmol/L. Also, an analysis was carried on the aforementioned 40N as a comparative example in the same manner. FIGS. 12 and 13 show the results.
A general note: SPR reads the build-up and loss of mass on a sensor chip optically.

Data set [2] concerns the target T1, His-tagged HMGB1. As to the kind of experiment: SPR; superior to R8c6_1; 635 nM protein. As to conditions: tags: N-terminal His-tag. The method, then: as §1
An analysis of ability to bind to His-tag-added HMGB1 was carried out in the same manner as in (2) above of the aforementioned Example 1 except that the aforementioned RNA aptamers were used, the concentration of the aforementioned His-tag-added HMGB1 was 635 nmol/L, and the injection time of the aforementioned His-tag-added HMGB1 was 60 seconds. Also, an analysis was carried on the aforementioned 40N as a comparative example in the same manner.

Data set [3] concerns the target T1, His-tagged HMGB1. The data set can be described thus: SPR; 200 nM protein, 500 mM NaCl. As to conditions: tags: N-terminal His-tag. The method, then: as §1
An analysis of ability to bind to His-tag-added HMGB1 was carried out in the same manner as in (2) above of the aforementioned Example 1 except that the aforementioned fluorinated RNA aptamers were used, the concentration of His-tag-added HMGB1 was 200 nmol/L, and the injection time of the aforementioned His-tag-added HMGB1 was 60 seconds. Also, an analysis was carried out in the same manner on the aforementioned 2′F-40N and unmodified R8c6_{—}1 that was not fluorinated.

Data set [4] deals with T1, His-tagged HMGB1. As to the kind of experiment: SPR; physiological 150 mM NaCl. As to conditions: tags: N-terminal His-tag. The procedure: as §1
The ability of each of the aforementioned RNA aptamers to bind to HMGB1 under physiological conditions was examined. An analysis of binding ability was carried out in the same manner as in (2) above except that the 500 mmol/L NaCl concentration of the aforementioned running buffer was changed so as to conform to the physiology condition of a living body of 150 mmol/L, and the injection time of the aforementioned His-tag-added HMGB1 was 45 sec.

Data set [5] deals with His-tagged MIF (UniProt P14174 P14174:2-115). As to the kind of experiment: SPR; 300 nM His-MIF specificity control. The method, then:
as §1
The ability of each of the aforementioned RNA aptamers to bind to His-tag was examined. An analysis of the aforementioned binding ability was carried out in the same manner as in (2) above except that 300 nmol/L of the aforementioned His-tag-added MIF protein was used in place of the aforementioned His-tag-added HMGB1.

Data set [6] has as its target HMGB1 (no His-tag) (UniProt P09429 P09429:1-215). As to the kind of experiment: SPR; 1 uM untagged HMGB1, 500 mM NaCl. To be noted: tags: none. The method, then: as §1
The ability of each of the aforementioned RNA aptamers to bind to HMGB1 in which no His-tag was added to the N-terminus was examined. An analysis of the aforementioned binding ability was carried out in the same manner as in (2) above except that 1 μmol/L of the aforementioned HMGB1 was used in place of the aforementioned His-tag-added HGB1 and the injection time of the aforementioned HMGB1 was 60 sec.

Data set [7] has as its target T1, His-tagged HMGB1. As to the kind of experiment: SPR; 200 nM protein, 150 mM NaCl; above unmodified 40N. To be noted: tags: N-terminal His-tag. The procedure: as §1
An analysis of ability to bind to the aforementioned His-tag-added HMGB1 (manufactured by Sigma) was carried out in the same manner as in (2) above of the aforementioned Example 1 except that the aforementioned fluorinated RNA aptamers were used, the concentration of the aforementioned His-tag-added HMGB1 was 200 nmol/L, the concentration of NaCl in the aforementioned running buffer was 150 mmol/L, and the injection time of the aforementioned His-tag-added HMGB1 was 60 seconds. Also, an analysis was carried out in the same manner on unmodified R8c6_{—}1 that was not fluorinated.

Consider 24 molecules from patent publication US20120208867, “HMGB1 BINDING NUCLEIC ACID MOLECULE AND APPLICATIONS THEREOF” (published 2012).

Sequence of HMGB1 (no His-tag) (P09429 whole entry, one chain of several): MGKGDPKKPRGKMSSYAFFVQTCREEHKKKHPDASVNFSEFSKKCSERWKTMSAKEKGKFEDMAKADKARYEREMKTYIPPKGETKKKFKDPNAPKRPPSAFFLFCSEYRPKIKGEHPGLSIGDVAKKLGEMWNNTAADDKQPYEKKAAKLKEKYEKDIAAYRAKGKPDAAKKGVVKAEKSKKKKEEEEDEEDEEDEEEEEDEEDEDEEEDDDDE
T1 sequence (P09429 whole entry, one chain of several): as above
Sequence of His-tagged MIF (P14174 2-115, one chain of several): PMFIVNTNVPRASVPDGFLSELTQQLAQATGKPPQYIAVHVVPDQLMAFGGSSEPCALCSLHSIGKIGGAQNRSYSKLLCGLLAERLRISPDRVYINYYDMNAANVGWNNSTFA

B1: R8c6_1-18-S4 (ssRNA)
RNA: GGGAGUACAGUAAGACACGUAGCACCAGUCGUUUGUCGUGCCUGGACGUGCAGU
Regarding B1, the binding result in data set [1] is given as “binds”.

B2: R8c6_1-20 (ssRNA)
RNA: GGGUACAGUAAGACACGUAGCACCAGUCUGACGUUUGUCGUCAGUGCCUGGACGUGCAGU
Take B2: in data set [2], the binding result is on record as “binds”.

B3: R8c6_1-15 (ssRNA)
RNA: GGGCAGAGUACAGUAAGACACGUAGCACCAGUCUGACGUUUGUCGUCAGUGCCUGGACGUGCAGU
As for B3, the binding result in data set [2] is “binds”.

B4: 2'F-R8c6_1-15 (ssRNA)
RNA: GGGCAGAGUACAGUAAGACACGUAGCACCAGUCUGACGUUUGUCGUCAGUGCCUGGACGUGCAGU
modifications: 2'-F on all C and U
On to B4, for which the binding result in data set [3] was “binds”.

B5: R8c6_1-18-S6 (ssRNA)
RNA: GGGAGUACAGUAAGACACGUAGCACCAGUGUGCCUGGACGUGCAGU
For the molecule B5, in data set [1], the binding result was “binds”.

B6: R8c6_1-34CC (ssRNA)
RNA: GGGUAGCACCAGUCUGACGUUUGUCGUCAGUGCCUGGACGUGCACC
Take B6: the binding result in data set [1] is reported as “binds”.

B7: R8c6_1-30 (ssRNA)
RNA: GGGCACGUAGCACCAGUCUGACGUUUGUCGUCAGUGCCUGGACGUGCAGU
Turning to B7, in data set [1], the binding result is on record as “binds”.

B8: 2'F-R8c6_1-4 (ssRNA)
RNA: GGGACGCUCACGUACGCUCAGAGUACAGUAAGACACGUAGCACCAGUCUGACGUUUGUCGUCAGUGCCUGGACGUG
modifications: 2'-F on all C and U
B8: the binding result in data set [3] is given as “binds”.

B9: #10 (ssRNA)
RNA: GGGACGCUCACGUACGCUCAUAGUCAAGGUGAAAACCCCCAUAGAGACUUCAGUGCCUGGACGUGCAGU
Regarding B9, the binding result is recorded as “binds” in data set [4], “no binding” in data set [5] and “binds” in data set [6].

B10: #80 (ssRNA)
RNA: GGGACGCUCACGUACGCUCACAUCUGAAUUUAAGCCACGUAGAACCAGGCCCUCCACGCGUCAGUGCCUGGACGUGCAGU
As for B10, the binding result in data set [4] is on record as “binds”; in data set [5], “no binding”; in data set [6], “binds”.

B11: 2'F-U-#80 (ssRNA)
RNA: GGGACGCUCACGUACGCUCACAUCUGAAUUUAAGCCACGUAGAACCAGGCCCUCCACGCGUCAGUGCCUGGACGUGCAGU
modifications: 2'-F on all U
With B11, in data set [7], the binding result is given as “binds”.

B12: 2'F-C-#80 (ssRNA)
RNA: GGGACGCUCACGUACGCUCACAUCUGAAUUUAAGCCACGUAGAACCAGGCCCUCCACGCGUCAGUGCCUGGACGUGCAGU
modifications: 2'-F on all C
Turning to B12, in data set [7], the binding result is reported as “binds”.

B13: 2'F-CU-R4_9068 (ssRNA)
RNA: GGGACGCUCACGUACGCUCAUGAUAUUUAAAUUUGGCCGCGUUUAAAACAUCCCCUACGAUCAGUGCCUGGACGUGCAGU
modifications: 2'-F on all C and U
As for B13, in data set [7], the binding result is listed as “binds”.

B14: 2'F-U-R4_9068 (ssRNA)
RNA: GGGACGCUCACGUACGCUCAUGAUAUUUAAAUUUGGCCGCGUUUAAAACAUCCCCUACGAUCAGUGCCUGGACGUGCAGU
modifications: 2'-F on all U
For B14, the binding result in data set [7] is listed as “binds”.

B15: 2'F-C-R4_9068 (ssRNA)
RNA: GGGACGCUCACGUACGCUCAUGAUAUUUAAAUUUGGCCGCGUUUAAAACAUCCCCUACGAUCAGUGCCUGGACGUGCAGU
modifications: 2'-F on all C
On to B15, for which, in data set [7], the binding result was “binds”.

B16: R8c6_1-21 (ssRNA)
RNA: GGGACAGUAAGACACGUAGCACCAGUCUGACGUUUGUCGUCAGUGCCUGGACGUGCAGU
B16: in data set [2], the binding result was “binds”.

B17: 2'F-R8c6_1-21 (ssRNA)
RNA: GGGACAGUAAGACACGUAGCACCAGUCUGACGUUUGUCGUCAGUGCCUGGACGUGCAGU
modifications: 2'-F on all C and U
Regarding B17, the binding result in data set [3] was “binds”.

B18: #08 (ssRNA)
RNA: GGGACGCUCACGUACGCUCAAGUCCCUUGACACGUCCGUUUUCUAACUGGAAUAGAGGCCUCAGUGCCUGGACGUGCAGU
In the case of B18, the binding result is listed as “binds” in data set [4], “no binding” in data set [5] and “binds” in data set [6].

B19: 2'F-R8c6_1-1 (ssRNA)
RNA: GGGACGCUCACGUACGCUCAGAGUACAGUAAGACACGUAGCACCAGUCUGACGUUUGUCGUCAGUGCCUGGACGUGCAG
modifications: 2'-F on all C and U
For B19, in data set [3], the binding result is reported as “binds”.

B20: #47 (ssRNA)
RNA: GGGACGCUCACGUACGCUCAAAAAACUACUGCCGAACCGUAAGACACGUAGAACCAGGCAUCAGUGCCUGGACGUGCAGU
On to B20, for which the binding result is “binds” in data set [4], “no binding” in data set [5] and “binds” in data set [6].

B21: #06 (ssRNA)
RNA: GGGACGCUCACGUACGCUCAUACACUGCACGCUCCGCUUUGAACAUCAAUGGAGGCCCUGUCAGUGCCUGGACGUGCAGU
B21: the binding result in data set [4] is “binds”; in data set [5], “no binding”; in data set [6] it was “binds”.

B22: #34 (ssRNA)
RNA: GGGACGCUCACGUACGCUCAAUUCACCUCAGCAUGUCCGCUUGUGACGAUGGAGGCACCUUCAGUGCCUGGACGUGCAGU
Regarding B22, the binding result in data set [4] is listed as “binds”; in data set [5] it was “no binding”; in data set [6] it was “binds”.

B23: #36 (ssRNA)
RNA: GGGACGCUCACGUACGCUCACCUAGCACGUCCGUUUCUGGAUCUGUCAGUUAGAGGCCUAUCAGUGCCUGGACGUGCAGU
B23: the values for the binding result in data set [4], in data set [5] and in data set [6] were “binds”, “no binding” and “binds”, respectively.

B24: R8c6_1-18 (ssRNA)
RNA: GGGAGUACAGUAAGACACGUAGCACCAGUCUGACGUUUGUCGUCAGUGCCUGGACGUGCAGU
For B24, the binding result in data set [2] is recorded as “binds”.
